# According to patent US8530235B2, “Medium that supports culture of an oocyte and modulation of granulosa cell apoptosis” (Adelaide Research & Innovation Pty Ltd., priority 2005, dated 2013):
# System: Smad 3-responsive CAGA-luciferase reporter
# Assay: Smad 3-responsive CAGA-luciferase reporter in mural granulosa cells from large antral follicles
# Type: cell-based, marmoset monkey, Callithrix jacchus
# Details: 48 h; 0.5 ng/ml TGFβ1, 88-265 ng/ml GDF9, 50 ng/ml BMP7 or 60 mouse oocytes
# Description: FIGS. 18A and 18B show the activation of the TGF-β signalling pathway by GDF9 and oocytes. MGC from large follicles were transiently transfected with either a Smad 3-responsive CAGA-luciferase reporter construct (A) or a Smad 1-responsive BRE-luciferase reporter construct (B). Cells were subsequently left untreated, treated with 0.5 ng/ml TGFβ1, 88-265 ng/ml GDF9, 50 ng/ml BMP7 or co-cultured with 60 mouse oocytes. Cells were cultured for 48 h after which time luciferase activity was measured from cell extracts. Bars represent means+/− SEM from 3 replicate experiments expressed as a fold change relative to control.
# Luciferase reporter constructs responsive to specific phosphorylated Smads were used to detect the activation of mural GC Smad proteins by recombinant GDF9 Mural GCs were collected and processed as described above, except cells were given a final wash in DMEM(MP Biomedicals, Seven Hills, Australia)+2% FCS (Trace Biosciences, Castle Hill, Australia). Following the final wash, cells were transferred to individual wells of a 96-well plate (Falcon) and cultured at 1.6×10^5 cells/ml. After 4 hours of culture, cells were transiently transfected with 50 ng of luciferase reporter construct DNA using Fugene 6 (Roche Diagnostics, Castle Hill, Australia). 18 hours after transfection, medium was aspirated from cells and replaced with DMEM supplemented with 0.1% FCS. Various ligands were added to cells at this point (see below) and the culture period extended for a further 48 hours. Experiments were terminated by removing media from wells and freezing plates at −20° C. […]
# Seven adult female marmosets were primed with […] for 6 days, whole ovaries were removed on day 7, follicles manually excised, and GC were then collected from 3 size classes: periantral (PA; 0.42-0.66 mm), small antral (SA; 0.66-1.5 mm) and large antral (LA; >1.5 mm). […] In order to determine the effects of GDF9 on marmoset GC proliferation, we employed a GC bioassay whereby after 24 h ^3H-thymidine incorporation is assessed as an indicator of DNA synthesis and cellular proliferation. […]
molecule,measurement,value
"GDF-9: Recombinant mouse GDF-9 produced in-house in transfected 293H cells, partially purified by HIC (protein, UniProt Q07105 307-441, looked up) Growth/differentiation factor …: GQKAIRSEAKGPLLTASFNLSEYFKQFLFPQNECELHDFRLSFSQLKWDNWIVAPHRYNPRYCKGDCPRAVRHRYGSPVHTMVQNIIYEKLDPSVPRPSCVPGKYSPLSVLTIEPDGSIAYKEYEDMIATRCTCR",CAGA-luciferase activity above control levels,5 fold
